Experimental data published in patent US20090246248A1, “COATING COMPOSITIONS HAVING IMPROVED PERFORMANCE” (priority 2008, published 2009).
Numbered stars: 1 amine (or outer) side, 2 acyl side, 3 side chain; on linkers, the order of the positions; unused ones are H or OH. Square brackets hold non-standard residues; d marks the D form. Ends that are not written are not given here. * marks the point of attachment. (AUD)6 = six aminoundecanoic acid units between the two peptides, O=C(CCCCCCCCCCNC(=O)CCCCCCCCCCNC(=O)CCCCCCCCCCN[*:1])NCCCCCCCCCCC(=O)NCCCCCCCCCCC(=O)NCCCCCCCCCCC(=O)[*:2]; Biotin = O=C1N[C@H]2[C@H](CS[C@H]2CCCCC(=O)*)N1; P10 = 10 unit polyethylene glycol polymer; Myristoyl = CCCCCCCCCCCCCC(=O)*; Lauroyl = CCCCCCCCCCCC(=O)*; linker = not defined here; (MP)2 = not defined here; Aun = NCCCCCCCCCCC(=O)O; AEEA = NCCOCCOCC(=O)O

B1: SEQ ID NO 153 (peptide)
peptide: [code s][code s]GGVGGWALFETLRGKEV[code s][code r][P10]SWWGFWNGSAAPVWSRGSSGK(Biotin)-NH2
modifications: not fully specified; printed as ssGGVGGWALFETLRGKEVsr-P10-SWWGFWNGSAAPVWSR-GSSGK-B-NH2
B2: SEQ ID NO 147 (peptide)
peptide: YFRAFRKFVKPFKRAFK[(MP)2][code s][code s]GGVGGWALFETLRGKEV[code s][code r]GSSGK(Biotin)-NH2
modifications: not fully specified; printed as YFRAFRKFVKPFKRAFK-(MP)2-ssGGVGGWALFETLRGKEVsr-GSSGK-B-NH2; reading uncertain
B3: SEQ ID NO 149 (peptide)
peptide: [code s][code s]GGVGGWALFETLRGKEV[code s][code r][P10]YFRAFRKFVKPFKRAFKGSSGK(Biotin)-NH2
modifications: not fully specified; printed as ssGGVGGWALFETLRGKEVsr-P10-YFRAFRKFVKPFKRAFK-GSSGK-B-NH2
B4: SEQ ID NO 150 (peptide)
peptide: SWWGFWNGSAAPVWSRGSSG[code s][code s]GGVGGWALFETLRGKEV[code s][code r]GSSGK(Biotin)-NH2
modifications: not fully specified; printed as SWWGFWNGSAAPVWSR-GSSG-ssGGVGGWALFETLRGKEVsr-GSSGK-B-NH2

Tested on: not given
Assay: not given
Type: binding
Conditions: 18 hour incubation in 10% BSA+10 mM guanidinium chloride; FIG. 1
Description: In this example, illustrated are unexpected beneficial properties of the composition of the invention, including but not limited to, one or more improved biophysical properties. Such one or more unexpected beneficial properties of a composition of the invention may comprise an increase in stability. An increase in stability may comprise any one or more of resistance to chemical denaturation, resistance to proteolytic degradation, improved retention to a substrate (e.g., resistance to being competed off a substrate to which it is bound, such as by proteins or other biomolecules found in body tissues). Thus, to ascertain a beneficial property of a composition of the invention, it is compared to the properties of a component of the composition-namely, a substrate-binding peptide by itself (e.g., without fatty acid covalently coupled thereto). An assay was developed that, from our direct comparisons (see, e.g., discussion of FIG. 2 below, and Example 7 herein), mimicked the effect of incubation of substrate-binding peptide with human plasma on stability of binding of a substrate-binding peptide to its substrate. The assay utilized incubations in the presence of 10% bovine serum album (BSA) with 10 mM guanidinium chloride. The high BSA concentration mimics the elevated albumin content of human plasma, and the guanidinium chloride is used to compete with any charged interactions involved in binding of the substrate-binding peptide to its substrate.
In this assay, two immunoassay plates were prepared for a “side-by-side” comparison of binding of a test sample (substrate-binding peptide or composition of the invention) to its substrate with or without the presence of 10% BSA with 10 mM guanidinium chloride. The wells of each 96-well polypropylene plate were incubated with 350 μl BSA 1% in PBS for 30 minutes at 20° C. with 500 rpm shaking. To each well was added one acetone-cleaned 3/32″ 316LVM stainless steel bead, followed by addition of dilutions in PBS of the test sample in a range of concentrations starting from 10 μM. Final volume in each well was 200 μl. The plates were incubated for 1 hour at 20° C. with 500 rpm shaking to allow for the binding to occur. The beads were washed 3 times with 250 μl PBS using a plate washer. […]
In the immunoassay for detecting binding without the presence of 10% BSA with 10 mM guanidinium chloride, added to each well was 200 μl of streptavidin AP (AP is alkaline phosphatase) at 1/200 in TBS+1% BSA. […] When color has developed, each well was read at OD405 nm in endpoint mode using a plate reader. […] When color has developed, the wells were read at OD405 nm in endpoint mode using a plate reader. […]
For “119: Fmoc-NH-(PEG)27-CO2H covalently coupled to a peptide having the amino acid sequence of SEQ ID NO:122 (PEGylated peptide) (SSHRTNHKKNNPKKKNKTRGSSGK; also: Fmoc-NH-(PEG)27-CO2H covalently coupled, site not given here) [Compound 119]”, the “retention of binding compared to substrate-binding peptide alone (SEQ ID NO:122)” value was “failed to promote retention”.
With “120: amino acid sequence YWAWAYAW (SEQ ID NO:129) covalently coupled to a peptide having the amino acid sequence of SEQ ID NO:122 (YWAWAYAWSSHRTNHKKNNPKKKNKTRGSSGK) [Compound 120]” the “retention of binding compared to substrate-binding peptide alone (SEQ ID NO:122)” value was “failed to promote retention”.
In the case of “AUD-AUD-AUD-AUD-SEQ ID NO:122 ([Aun][Aun][Aun][Aun]SSHRTNHKKNNPKKKNKTRGSSGK) [Compound 122]”, the “retention of binding compared to substrate-binding peptide alone (SEQ ID NO:122)” value is reported as “significantly improved retention”.

Tested on: not listed separately
Assay: Critical micelle concentration (methyl orange assay)
Type: physicochemical
Conditions: pH 7 PBS, A484
Procedure: Formation of a composition of the invention, and evidence of macromolecular network formation, may be monitored or quantified by any means known in the art. In this example, macromolecular formation was detected using a standard assay for determining critical micelle concentration (“CMC”). In this assay, a solution containing the composition of the invention (in a range of concentrations in pH 7 phosphate buffered saline (“PBS”)) was mixed with a solution of methyl orange (0.04 mM in PBS), and the absorbance of the mixture was measured at 484 nm (A484). CMC is the concentration at which a sharp decrease in absorbance at A484 is observed, a change in the optical properties of methyl orange when trapped in a hydrophobic phase, such as caused by self-association as a macromolecular network (Table 7, “CMC”). Also included in this assay were an assay control peptide having an amino acid sequence of SEQ ID NO:122 (Table 7, “Control”), and compound 119 (a PEGylated peptide, the peptide having an amino acid sequence of SEQ ID NO:122, as described in more detail in Example 6 herein).
In the case of “119: Fmoc-NH-(PEG)27-CO2H covalently coupled to a peptide having the amino acid sequence of SEQ ID NO:122 (PEGylated peptide) (SSHRTNHKKNNPKKKNKTRGSSGK; also: Fmoc-NH-(PEG)27-CO2H covalently coupled, site not given here) [Compound 119]”, the CMC is reported as >>10 μM.
“AUD-AUD-AUD-AUD-SEQ ID NO:122 ([Aun][Aun][Aun][Aun]SSHRTNHKKNNPKKKNKTRGSSGK) [Compound 122]” gave a CMC of 0.123 µM.
In the case of “LAU-SEQ ID NO: 122 (Lauroyl-SSHRTNHKKNNPKKKNKTRGSSGK) [Compound 126]”, the CMC is reported as 0.37 µM.
Molecule “MYR-SEQ ID NO: 122 (Myristoyl-SSHRTNHKKNNPKKKNKTRGSSGK) [Compound 125]” has a CMC of 0.123 µM.
Molecule “MYR-linker-SEQ ID NO: 122 ({Myristoyl-linker}-SSHRTNHKKNNPKKKNKTRGSSGK; reading uncertain) [Compound 127]” has a CMC of 0.123 µM.
“PALM-PALM-PALM-linker-SEQ ID NO: 122 (SSHRTNHKKNNPKKKNKTRGSSGK; also: three palmitoyl groups, place not given here, linker, place and nature not given here) [Compound 129]” showed a CMC of 0.123 µM.
With “SSHRTNHKKNNPKKKNKTRGSSGK [SEQ ID NO:122, assay control peptide]” the CMC was >>10 μM.
“[MYR]2-K-linker-SEQ ID NO: 122 (SSHRTNHKKNNPKKKNKTRGSSGK; also: lysine bearing two myristoyl groups, place not given here, linker, place and nature not given here) [Compound 128]” gave a CMC of 0.123 µM.

Tested on: not listed separately
Assay: Vancomycin loading onto titanium bead (HPLC of HCl eluate)
Conditions: mixture with vancomycin, 30 mins 20° C., washed with PBS
Procedure: The experimental procedure used for the embodiments described above was as follows. […] All three components were mixed and then applied to the metal bead. […] All three components were mixed and then applied to the metal bead. […] The mixtures were applied to the metal beads and incubated for 30 mins at 20° C. with 700 rpm shaking. The beads were washed three times with 350 ul PBS. Beads were analyzed as follows: 200 ul of 100 mM HCl was added to each bead and incubated for 30 mins at 20° C. with 1,000 rpm shaking. The eluate from each bead was analyzed by HPLC using Phenomenex Luna 3 um column, 50×4.60 mm. Output was compared to a standard curve for vancomycin to determine the amount of vancomycin retained onto the metal bead.
With “MA-AHx-SSCLIDIYGVCHNFDAY-miniPeg-miniPeg-YFRAFRKFVKPFKRAFKGSSK(Biotin) [SEQ ID NO: 165]” the “Vancomycin Load” value was 1,700 pmol/cm2.
In the case of “MA-Ahx-SSCLIDIYGVCHNFDAY-miniPeg-miniPeg-HKKNNPKKKNKTRGSSK(Biotin) [SEQ ID NO: 164]”, the “Vancomycin Load” value is reported as 278 pmol/cm2.
With “Pyrene-butyric-SSCLIDIYGVCHNFDAY-miniPeg-miniPeg-HKKNNPKKKNKTRGSS-K(Biotin) [SEQ ID NO: 166]” the “Vancomycin Load” value was 173 pmol/cm2.
With “RRRRRRR-PSSHRTNHKKNNPKKKNKTRGP-RRRRRRR-K(biotin) [SEQ ID NO: 156]” the “Vancomycin Load” value was under 10 pmol/cm2.
For “SSSCLIDMYGVCHNFDGAYDSSRG-miniPeg-miniPeg-SSHRTNHKKNNPKKKNKTRGSSGK (SSSCLIDMYGVCHNFDGAYDSSRG[AEEA][AEEA]SSHRTNHKKNNPKKKNKTRGSSGK; not fully specified (bridges); printed as SSSCLIDMYGVCHNFDGAYDSSRG-miniPeg-miniPeg-SSHRTNHKKNNPKKKNKTRGSSGK; cysteine pairing not given here) [SEQ ID NO: 163]”, the “Vancomycin Load” value was 54 pmol/cm2.

Target: T1, GDF-7 (R&D SYSTEMS)
T1 sequence (Q7Z4P5 322-450, species assumed, looked up): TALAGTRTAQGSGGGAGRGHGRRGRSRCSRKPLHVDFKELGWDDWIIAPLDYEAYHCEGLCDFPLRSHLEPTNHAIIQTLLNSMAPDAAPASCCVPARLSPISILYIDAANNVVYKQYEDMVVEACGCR
Assay: GDF-7 capture on peptide-coated sutures; anti-GDF-7 antibody/AP, pNPP read-out; relative EC50; lower limit told of the whole group
Conditions: not given
Molecule [code s][code s]GGVGGWALFETLRGKEV[code s][code r][(MP)2]YFRAFRKFVKPFKRAFKGSSGK(Biotin)-NH2 (not fully specified; reading uncertain) [SEQ ID NO 148] has an EC50 of over 20 nM.
Work on [code s][code s]GGVGGWALFETLRGKEV[code s][code r]GSSGYFRAFRKFVKPFKRAFKGSSGK(Biotin)-NH2 (not fully specified) [SEQ ID NO 155] yielded an EC50 of over 20 nM.
With [code s][code s]GGVGGWALFETLRGKEV[code s][code r][(MP)2]SWWGFWNGSAAPVWSRGSSGK(Biotin)-NH2 (not fully specified; reading uncertain) [SEQ ID NO 152] the EC50 was over 20 nM.
For B1, the EC50 was over 20 nM.
For B2, the EC50 was over 20 nM.
With B3 the EC50 was over 20 nM.
With [code s][code s]GGVGGWALFETLRGKEV[code s][code r][(AUD)6]SWWGFWNGSAAPVWSRGSSGK(Biotin)-NH2 (not fully specified) [SEQ ID NO 154] the EC50 was over 20 nM.
In the case of B4, the EC50 is reported as over 20 nM.
